The source of these data is doi:10.1101/2025.06.10.658867 (bioRxiv, 2025).

As a reminder, the Kd is the equilibrium constant for the complex coming apart. Read a high Kd as a looser complex.

In data set [1] the target is Siglec-10_(d1-d2) WT fused to human IgG1 Fc (Siglec-10Fc WT) (human, UniProt Q96LC7). In words: BLI. (In BLI a coated tip is dipped into the sample, and binding shifts an interference pattern.)
Data set [2] deals with the molecule itself. As to the kind of experiment: DNA-PAINT super-resolution microscopy with nearest-neighbour distance analysis.

B1: Fab portion of the anti-Siglec-10 mAb S10A (S10A Fab) (Fab, V domains shown)
VH: QIQLQQSGAELEKPGASVKMSCKASGYTFTSYWMHWVKQRPGQGLEWIGYINPDTDSTEYNQKFRDKATLTADKSSSTAYMQLSSLTSEDSAVYYCARPYYRYAGYAMDYWGQGTSVTVSS
VL: DIKMTQSPSSMYASLGERVTITCKASQDINSYLSWFQQKPGKSPKTLIYRANRLVDGVPSRFSGSGSGQVYSLTISSLEYEDLGIYYCLQYDEFPWTFGGGTKLEIK
As for B1, in data set [1], the Kd is 1.1 nM.

B2: intracellularly GFP-tagged Siglec-10 R127A in THP-1 cells (receptor, human, UniProt Q96LC7 17-697, looked up)
chain: MDGRFWIRVQESVMVPEGLCISVPCSFSYPRQDWTGSTPAYGYWFKAVTETTKGAPVATNHQSREVEMSTRGRFQLTGDPAKGNCSLVIRDAQMQDESQYFFRVERGSYVAYNFMNDGFFLKVTALTQKPDVYIPETLEPGQPVTVICVFNWAFEECPPPSFSWTGAALSSQGTKPTTSHFSVLSFTPRPQDHNTDLTCHVDFSRKGVSAQRTVRLRVAYAPRDLVISISRDNTPALEPQPQGNVPYLEAQKGQFLRLLCAADSQPPATLSWVLQNRVLSSSHPWGPRPLGLELPGVKAGDSGRYTCRAENRLGSQQRALDLSVQYPPENLRVMVSQANRTVLENLGNGTSLPVLEGQSLCLVCVTHSSPPARLSWTQRGQVLSPSQPSDPGVLELPRVQVEHEGEFTCHARHPLGSQHVSLSLSVHYSPKLLGPSCSWEAEGLHCSCSSQASPAPSLRWWLGEELLEGNSSQDSFEVTPSSAGPWANSSLSLHGGLSSGLRLRCEAWNVHGAQSGSILQLPDKKGLISTAFSNGAFLGIGITALLFLCLALIIMKILPKRRTQTETPRPRFSRHSTILDYINVVPTAGPLAQKRNQKATPNSPRTPLPPGAPSPESKKNQKKQYQLPSFPEPKSSTQAPESQESQEELHYATLNFPGVRPRPEARMPKGTQADYAEVKFQ
As for B2, in data set [2], the “mean percent dimers after tunicamycin” value was determined as 69%, the “mean percent dimers before tunicamycin” value amounted to 59% and the percent dimers turned out to be 47%.

B3: intracellularly GFP-tagged Siglec-10 WT in THP-1 cells (receptor, human, UniProt Q96LC7 17-697, looked up)
chain: MDGRFWIRVQESVMVPEGLCISVPCSFSYPRQDWTGSTPAYGYWFKAVTETTKGAPVATNHQSREVEMSTRGRFQLTGDPAKGNCSLVIRDAQMQDESQYFFRVERGSYVRYNFMNDGFFLKVTALTQKPDVYIPETLEPGQPVTVICVFNWAFEECPPPSFSWTGAALSSQGTKPTTSHFSVLSFTPRPQDHNTDLTCHVDFSRKGVSAQRTVRLRVAYAPRDLVISISRDNTPALEPQPQGNVPYLEAQKGQFLRLLCAADSQPPATLSWVLQNRVLSSSHPWGPRPLGLELPGVKAGDSGRYTCRAENRLGSQQRALDLSVQYPPENLRVMVSQANRTVLENLGNGTSLPVLEGQSLCLVCVTHSSPPARLSWTQRGQVLSPSQPSDPGVLELPRVQVEHEGEFTCHARHPLGSQHVSLSLSVHYSPKLLGPSCSWEAEGLHCSCSSQASPAPSLRWWLGEELLEGNSSQDSFEVTPSSAGPWANSSLSLHGGLSSGLRLRCEAWNVHGAQSGSILQLPDKKGLISTAFSNGAFLGIGITALLFLCLALIIMKILPKRRTQTETPRPRFSRHSTILDYINVVPTAGPLAQKRNQKATPNSPRTPLPPGAPSPESKKNQKKQYQLPSFPEPKSSTQAPESQESQEELHYATLNFPGVRPRPEARMPKGTQADYAEVKFQ
Regarding B3, in data set [2], the “mean percent dimers after tunicamycin” value stood at 50%, the “mean percent dimers before tunicamycin” value is 61% and the percent dimers was found to be 67%.

B4: intracellularly GFP-tagged Siglec-10 R119A in THP-1 cells (receptor, human, UniProt Q96LC7 17-697, looked up)
chain: MDGRFWIRVQESVMVPEGLCISVPCSFSYPRQDWTGSTPAYGYWFKAVTETTKGAPVATNHQSREVEMSTRGRFQLTGDPAKGNCSLVIRDAQMQDESQYFFAVERGSYVRYNFMNDGFFLKVTALTQKPDVYIPETLEPGQPVTVICVFNWAFEECPPPSFSWTGAALSSQGTKPTTSHFSVLSFTPRPQDHNTDLTCHVDFSRKGVSAQRTVRLRVAYAPRDLVISISRDNTPALEPQPQGNVPYLEAQKGQFLRLLCAADSQPPATLSWVLQNRVLSSSHPWGPRPLGLELPGVKAGDSGRYTCRAENRLGSQQRALDLSVQYPPENLRVMVSQANRTVLENLGNGTSLPVLEGQSLCLVCVTHSSPPARLSWTQRGQVLSPSQPSDPGVLELPRVQVEHEGEFTCHARHPLGSQHVSLSLSVHYSPKLLGPSCSWEAEGLHCSCSSQASPAPSLRWWLGEELLEGNSSQDSFEVTPSSAGPWANSSLSLHGGLSSGLRLRCEAWNVHGAQSGSILQLPDKKGLISTAFSNGAFLGIGITALLFLCLALIIMKILPKRRTQTETPRPRFSRHSTILDYINVVPTAGPLAQKRNQKATPNSPRTPLPPGAPSPESKKNQKKQYQLPSFPEPKSSTQAPESQESQEELHYATLNFPGVRPRPEARMPKGTQADYAEVKFQ
For B4, in data set [2], the “mean percent dimers after tunicamycin” value is 69%, the “mean percent dimers before tunicamycin” value is 72% and the percent dimers came to 69%.
